From the supplement of paper PMC7877785
± gives the uncertainty stated by the source.

Experiment: self-splicing fitness, log relative to wild type (ln ratio); higher = more splicing; Tetrahymena group I intron in knt gene, E. coli kanamycin selection, DiMSum; sequences stand for … in CUCUCU…GGAGGGAAAAGUUAUCAGGCAUGCACCUGGUAGCUAGUCUUUAAACCAAUAGAUUGCAUCGGUUUAAAAGGCAAGACCGUCAAAUUGCGGGAAAGGGGUCAACAGCCGUUCAGUACCAAGUCUCAGGGGAAACUUUGAGAUGGCCUUGCAAAGGGUAUGGUAAUAAGCUGACGGACAUGGUCCUAACCACGCAGCCAAGUCCUAAGUCAACAGAUCUUCUGUUGAUAUGGAUGCAGUUCACAGACUAAAUGUCGGUCGGGGAAGAUGUAUUCUUCUCAUAAGAUAUAGUCGGACCUCUCCUUAAUGGGAGCUAGCGGAUGAAGUGAUGCAACACUGGAGCCGCUGGGAACUAAUUUGUAUGCGAAAGUAUAUUGAUUAGUUUUGGAGUACUCGUGGUCG
Method in brief: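 Fitness was computed with DiMSum as the error-weighted combination of replicate fold changes, kanamycin versus none, each normalised to wild type. The library randomised all eight intron nucleotides of the P1ex region, with the intron placed in the knt kanamycin-resistance gene on pET-22b(+) in E. coli BL21(DE3). Six replicate transformations were grown overnight at 37°C or 30°C on LB agar with or without 25 μg/mL kanamycin, plus 100 μg/mL carbenicillin, 50 μM IPTG and 0.2% rhamnose. Pooled colonies were amplicon-sequenced on an Illumina HiSeq 2500.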

| Sequence | self-splicing fitness (ln) (30 °C) | self-splicing fitness (ln) (37 °C) |
| --- | --- | --- |
| CUGGAGCAAUAUUACGCGGA | -1.86 ± 0.24 | – |
| GUCUAGCAAUAUUACGACAA | -2.6 ± 0.23 | -1.56 ± 0.26 |
| ACGGAGCAAUAUUACGAAGC | -4.24 ± 0.39 | -2.4 ± 0.18 |
| ACUAAGCAAUAUUACGGCCA | -0.942 ± 0.13 | 0.00289 ± 0.13 |
| ACUCAGCAAUAUUACGCUCC | -0.601 ± 0.12 | -0.848 ± 0.16 |
| ACCUAGCAAUAUUACGCAGA | -2.23 ± 0.09 | -1.11 ± 0.082 |
| CAAGAGCAAUAUUACGAGGA | -3.17 ± 0.33 | -2.79 ± 0.44 |
| UAAUAGCAAUAUUACGAAUA | -2.51 ± 0.34 | -1.28 ± 0.17 |
| AGUCAGCAAUAUUACGAGCA | -0.935 ± 0.12 | -0.0144 ± 0.14 |
| AGAUAGCAAUAUUACGAAGA | – | -1.12 ± 0.39 |
| CUAUAGCAAUAUUACGCGUC | -3.97 ± 0.34 | -2.71 ± 0.25 |
| CCAAAGCAAUAUUACGCACG | -0.44 ± 0.087 | -0.583 ± 0.11 |
| CGAAAGCAAUAUUACGGACU | -0.69 ± 0.053 | 0.357 ± 0.079 |
| AGCAAGCAAUAUUACGUACA | -1.22 ± 0.074 | -0.296 ± 0.085 |
| UGUGAGCAAUAUUACGGCCU | -1.89 ± 0.27 | -1.18 ± 0.32 |
| GUUUAGCAAUAUUACGCUGG | -2.55 ± 0.25 | -0.944 ± 0.26 |
| CAUCAGCAAUAUUACGCUUU | -2.23 ± 0.097 | -1.34 ± 0.1 |
| ACGUAGCAAUAUUACGGUAU | -2.02 ± 0.11 | -1.56 ± 0.12 |
| GAAGAGCAAUAUUACGUUGG | -3.53 ± 0.18 | -2.34 ± 0.16 |
| CAUCAGCAAUAUUACGCACC | -3.56 ± 0.14 | -1.61 ± 0.12 |
| AACUAGCAAUAUUACGUGAG | -1.28 ± 0.075 | -1.03 ± 0.1 |

| Sequence | self-splicing fitness (ln) (30 °C) | self-splicing fitness (ln) (37 °C) |
| --- | --- | --- |
| CAUGAGCAAUAUUACGGGCU | -3.53 ± 0.16 | -2.11 ± 0.15 |
| GAACAGCAAUAUUACGACAC | -0.422 ± 0.08 | 0.0163 ± 0.1 |
| AGGCAGCAAUAUUACGGGAC | -3.48 ± 0.23 | -1.94 ± 0.19 |
| GGUUAGCAAUAUUACGUAGG | -2.51 ± 0.18 | -1.03 ± 0.14 |
| UCCCAGCAAUAUUACGGGCG | -0.841 ± 0.058 | -0.455 ± 0.07 |
| AUAGAGCAAUAUUACGGUAC | -3.74 ± 0.32 | -1.55 ± 0.23 |
| ACGAAGCAAUAUUACGAAGA | -3.07 ± 0.25 | -3.2 ± 0.37 |
| AAUCAGCAAUAUUACGGUUG | -1.91 ± 0.082 | -0.913 ± 0.1 |
| UUGGAGCAAUAUUACGGAGG | -2.92 ± 0.24 | -2.01 ± 0.36 |
| GUGCAGCAAUAUUACGGUAC | -2.67 ± 0.15 | -2.07 ± 0.17 |
| GAUUAGCAAUAUUACGUAGG | -3.05 ± 0.16 | -1.48 ± 0.15 |
| UCACAGCAAUAUUACGCAAA | -2.74 ± 0.19 | -2.91 ± 0.17 |
| UAUGAGCAAUAUUACGUGCG | -1.06 ± 0.12 | -1.41 ± 0.16 |
| AGGCAGCAAUAUUACGUGGC | -2.88 ± 0.2 | -2.58 ± 0.22 |
| GAGUAGCAAUAUUACGGAGA | -2.29 ± 0.37 | -2.12 ± 0.29 |
| GGCGAGCAAUAUUACGACCC | -3.18 ± 0.44 | -1.25 ± 0.5 |
| UGACAGCAAUAUUACGUGAG | -0.267 ± 0.028 | -0.365 ± 0.046 |
| UCCGAGCAAUAUUACGUUCC | -3.5 ± 0.25 | -3.16 ± 0.32 |
| GAAUAGCAAUAUUACGGAGA | -3.11 ± 0.47 | -2.56 ± 0.45 |
| CUGUAGCAAUAUUACGUAGG | -1.03 ± 0.075 | -0.77 ± 0.12 |
| CGUAAGCAAUAUUACGGGCA | -3.24 ± 0.23 | -1.09 ± 0.14 |
